Experimental data reported in PMC10070186, “Unusual peptide-binding proteins guide pyrroloindoline alkaloid formation in crocagin biosynthesis” (Nature Chemistry, 2023).

Experiments:
Details in all cases: both partners purified
[1] = biological target: T1, CgnC (Chondromyces crocatus CM c5); experiment: SEC; size-exclusion chromatography of the single proteins in solution
T1 chain: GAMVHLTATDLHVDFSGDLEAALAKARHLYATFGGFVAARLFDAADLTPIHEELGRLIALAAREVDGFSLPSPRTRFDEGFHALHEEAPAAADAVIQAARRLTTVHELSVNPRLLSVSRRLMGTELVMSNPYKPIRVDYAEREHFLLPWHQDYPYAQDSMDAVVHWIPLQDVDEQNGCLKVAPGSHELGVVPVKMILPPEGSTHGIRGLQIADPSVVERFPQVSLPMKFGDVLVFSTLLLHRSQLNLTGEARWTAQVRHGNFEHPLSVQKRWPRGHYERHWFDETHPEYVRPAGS

[2] = biological target: T2, CgnB (Chondromyces crocatus CM c5); experiment: MST; microscale thermophoresis of two components; which one was titrated is told only in Fig. 3c
T2 construct: CgnB of the crocagin BGC of Chondromyces crocatus CM c5; Construct details are in the Supplementary Methods; source: purified (HisTrap, His-SUMO removed with TEV protease, Superdex 200)

[3] = biological target: T3, CgnE (Chondromyces crocatus CM c5); experiment: as above
T3 construct: CgnE of the crocagin BGC of Chondromyces crocatus CM c5; Construct details are in the Supplementary Methods; source: purified (HisTrap, His-SUMO removed with TEV protease, Superdex 200)

[4] = biological target: T4, CgnE in the presence of CgnA (400 µM) (Chondromyces crocatus CM c5); experiment: MST; microscale thermophoresis in the presence of CgnA (400 µM)
T4 construct: CgnE of Chondromyces crocatus CM c5, as m4; CgnA of Chondromyces crocatus CM c5, 21 amino acids, as m1; also called CgnA-CgnE; source: purified CgnE mixed with 400 µM CgnA

[5] = biological target: T5, CgnB in the presence of CgnA (400 µM) (Chondromyces crocatus CM c5); experiment: as above
T5 construct: CgnB of Chondromyces crocatus CM c5, as m2; CgnA of Chondromyces crocatus CM c5, 21 amino acids, as m1; also called CgnA-CgnB; source: purified CgnB mixed with 400 µM CgnA

[6] = biological target: T2, CgnB; experiment: MST; microscale thermophoresis in the presence of a constant, large excess of CgnE (250 µM)

B1: CgnC (enzyme)
chain: GAMVHLTATDLHVDFSGDLEAALAKARHLYATFGGFVAARLFDAADLTPIHEELGRLIALAAREVDGFSLPSPRTRFDEGFHALHEEAPAAADAVIQAARRLTTVHELSVNPRLLSVSRRLMGTELVMSNPYKPIRVDYAEREHFLLPWHQDYPYAQDSMDAVVHWIPLQDVDEQNGCLKVAPGSHELGVVPVKMILPPEGSTHGIRGLQIADPSVVERFPQVSLPMKFGDVLVFSTLLLHRSQLNLTGEARWTAQVRHGNFEHPLSVQKRWPRGHYERHWFDETHPEYVRPAGS
modifications: sequence from Supplementary Table 8 (the excerpt mark inside it is read as contiguous); N-terminal GA is a cloning remnant; dimer by size-exclusion chromatography / sequence from Supplementary Table …
With B1 the “stoichiometry N” value [1] was 2.

B2: CgnC (enzyme)
chain: GAMVHLTATDLHVDFSGDLEAALAKARHLYATFGGFVAARLFDAADLTPIHEELGRLIALAAREVDGFSLPSPRTRFDEGFHALHEEAPAAADAVIQAARRLTTVHELSVNPRLLSVSRRLMGTELVMSNPYKPIRVDYAEREHFLLPWHQDYPYAQDSMDAVVHWIPLQDVDEQNGCLKVAPGSHELGVVPVKMILPPEGSTHGIRGLQIADPSVVERFPQVSLPMKFGDVLVFSTLLLHRSQLNLTGEARWTAQVRHGNFEHPLSVQKRWPRGHYERHWFDETHPEYVRPAGS
modifications: sequence from Supplementary Table 8 (the excerpt mark inside it is read as contiguous); N-terminal GA is a cloning remnant; dimer by size-exclusion chromatography
B2 was tested, and the Kd [2] was about 6 µM, the Kd [3] was about 1 µM and the “fold increase of the CgnC–CgnE affinity on addition of CgnA (400 µM)” value [4] was 2 fold. For the same binder, the Kd [5] was about 0.1 µM.

B3: CgnC in the presence of a constant, large excess (250 µM) of CgnE (complex)
chain 1: GAMVHLTATDLHVDFSGDLEAALAKARHLYATFGGFVAARLFDAADLTPIHEELGRLIALAAREVDGFSLPSPRTRFDEGFHALHEEAPAAADAVIQAARRLTTVHELSVNPRLLSVSRRLMGTELVMSNPYKPIRVDYAEREHFLLPWHQDYPYAQDSMDAVVHWIPLQDVDEQNGCLKVAPGSHELGVVPVKMILPPEGSTHGIRGLQIADPSVVERFPQVSLPMKFGDVLVFSTLLLHRSQLNLTGEARWTAQVRHGNFEHPLSVQKRWPRGHYERHWFDETHPEYVRPAGS
chain 2: GMGGRRTIGIRSGEGAIMNASDFYALLRGRGMPVVVDDAEAAAVVSELGFRTVPFEAFDFDSPSEDPALVIVAQMGNVDALHGLWERSGTPLMHLALAKFDGGLSRLRAGLARVLAVDTDAALKRRAEAYEQLFSSASVEIASGEGVLRCHIGDEVEVGNCGDTLEQGFLYSVAEFLEASVVNLEGERSTFWVEGELPFDGFIHLSNSAALKERWGGMLDEFMRRSREGANLVRFADNVIDRLVVGGVDVTSALAGLSQGEERGMAATEFGLGCADAEAAEPFGVNSLLHKSAGGAYIGIGKGLRIPHIDFIARGATIRFIPAAEG
modifications: CgnC is a dimer and CgnE a monomer in solution when alone; stoichiometry of the complex is not given
B3 showed a Kd [6] of 28 µM.

In the case of MKKTIKQISAGDRSKKGN [CgnA leader peptide (CgnA^LP)], the “fold reduction in affinity compared to CgnA” value [2] is reported as 8 fold and the Kd [3] is reported as 514 µM.
